Results as given in article PMC7736812.

Target: 70S ribosomes from E. coli MRE600 (vacant) (E. coli)
Assay: stopped-flow Rayleigh light scattering (325 nm) of 70S dissociation; 70S ribosomes (0.05 uM) rapidly mixed with increasing GTPBP6 with 0.5 mM GTP, phosphoenol pyruvate and pyruvate kinase; 50 mM Tris-HCl pH 7.5, 70 mM NH4Cl, 30 mM KCl, 7 mM MgCl2, 37°C; kapp against GTPBP6 concentration, linear fit: slope = association, intercept = dissociation rate constant, Kd from their ratio

B1: GTPBP6Δ43 (purified recombinant GTPBP6) (domain or fragment)
chain: PGNLEGPWGGGRGLRADGGRSRTGDDEEEPEDADENAEEELLRGEPLLPAGTQRVCLVHPDVKWGPGKSQMTRAEWQVAEATALVHTLDGWSVVQTMVVSTKTPDRKLIFGKGNFEHLTEKIRGSPDITCVFLNVERMAAPTKKELEAAWGVEVFDRFTVVLHIFRCNARTKEARLQVALAEMPLHRSNLKRDVAHLYRGVGSRYIMGSGESFMQLQQRLLREKEAKIRKALDRLRKKRHLLRRQRTRREFPVISVVGYTNCGKTTLIKALTGDAAIQPRDQLFATLDVTAHAGTLPSRMTVLYVDTIGFLSQLPHGLIESFSATLEDVAHSDLILHVRDVSHPEAELQKCSVLSTLRGLQLPAPLLDSMVEVHNKVDLVPGYSPTEPNVVPVSALRGHGLQELKAELDAAVLKATGRQILTLRVRLAGAQLSWLYKEATVQEVDVIPEDGAADVRVIISNSAYGKFRKLFPG
B1 showed a Kd of 700 nM, a koff of 0.09 s⁻¹ and a kon of 130000 M⁻¹ s⁻¹.
